Laboratory results from article PMC10404681, “Intrinsic catalytic properties of histone H3 lysine-9 methyltransferases preserve monomethylation levels under low S-adenosylmethionine” (The Journal of Biological Chemistry, 2023).

What was measured:
[1] = substrate: C[S+](CC[C@H](N)C(=O)[O-])C[C@H]1O[C@@H](n2cnc3c(N)ncnc32)[C@H](O)[C@@H]1O; test: Radiometric EZ-tip methyltransferase assay, steady-state kinetics, EHMT2; format: biochemical, H. sapiens; conditions: other: SAM varied 0.1–100 μM, EHMT2 25 nM, pH 7.9, 30 °C, 20 min, n = 3, SD
From the text: (§1) HMT amino acids included in expression plasmids are as follows: EHMT1 = 982 to 1266; EHMT2 = 913 to 1193; SUV39H1 = full length with N-terminal maltose-binding protein; SUV39H2 = 162 to 410.
(§2) Michaelis-Menten saturation curves were generated under steady-state conditions with the non-titrated component concentration being present at ≥5× KM specific to each enzyme. 1 × 10^5 CPM values were provided by [methyl-^3H] SAM in each reaction. Reaction times and enzyme concentrations were optimized for each HMT to ensure substrate turnover remained below 20%. 50 μM H3 peptide was combined with varying SAM concentrations up to 100 μM and either EHMT1 (25 nM), EHMT2 (25 nM), SUV39H1 (100 nM), or SUV39H2 (25 nM) in histone methyltransferase (HMT) activity buffer (50 mM HEPES pH 7.9, 0.5 mM DTT, 0.1 mM AEBSF, 2 mM MgCl2, 0.01% v/v Triton X-100) with a final volume of 20 μl. Enzyme concentrations are calculated for the monomeric form. Reactions were incubated at 30 °C for 20 min before quenching with TFA for a final concentration of 2% v/v TFA. Then, the reactions were cleaned using StageTips (i.e., two Attract SPE disks (Affinisep) in a pipette tip) with 200 μl acidified water (0.5% v/v formic acid) and eluted with 100 μl elution buffer (80% v/v acetonitrile, 0.5% v/v formic acid). The eluates were added to 2 ml of Ultima Gold LSC Cocktail (Sigma-Aldrich) and counted on a scintillation counter (PerkinElmer). All CPM values were corrected for decreased StageTip capacity when peptide concentrations exceeded 10 μM.
(§3) CPM values were converted to rates of product formation (μM/min) and used to generate Michaelis-Menten kinetic constants via GraphPad Prism v9.5.0 via the following equation: Y = Et∗kcat∗X/(KM + X). Variable definitions are as follows: Y = rate of product formation/enzyme velocity; X = substrate concentration; Et = concentration of enzyme in reaction.

[2] = substrate: C[S+](CC[C@H](N)C(=O)[O-])C[C@H]1O[C@@H](n2cnc3c(N)ncnc32)[C@H](O)[C@@H]1O; test: Radiometric EZ-tip methyltransferase assay, steady-state kinetics, EHMT1; format: biochemical, H. sapiens; conditions: other: SAM varied 0.1–100 μM, EHMT1 25 nM, pH 7.9, 30 °C, 20 min, n = 3, SD
From the text: as §1, §2, §3

[3] = substrate: C[S+](CC[C@H](N)C(=O)[O-])C[C@H]1O[C@@H](n2cnc3c(N)ncnc32)[C@H](O)[C@@H]1O; test: Radiometric EZ-tip methyltransferase assay, steady-state kinetics, SUV39H2; format: biochemical, H. sapiens; conditions: other: SAM varied 0.1–100 μM, SUV39H2 25 nM, pH 7.9, 30 °C, 20 min, n = 3, SD
From the text: as §1, §2, §3

[4] = substrate: C[S+](CC[C@H](N)C(=O)[O-])C[C@H]1O[C@@H](n2cnc3c(N)ncnc32)[C@H](O)[C@@H]1O; test: Radiometric EZ-tip methyltransferase assay, steady-state kinetics, SUV39H1; format: biochemical; conditions: other: SAM varied 0.1–100 μM, SUV39H1 100 nM, pH 7.9, 30 °C, 20 min, n = 3, SD
From the text: as §1, §2, §3

[5] = fixed H3K9me1 peptide H3(1–17) 50 μM
[6] = fixed H3K9me2 peptide H3(1–17) 50 μM
[7] = fixed H3K9un peptide H3(1–17) 50 μM

B1: EHMT2 catalytic domain (Homo sapiens) (protein)
chain: NRAIRTEKIICRDVARGYENVPIPCVNGVDGEPCPEDYKYISENCETSTMNIDRNITHLQHCTCVDDCSSSNCLCGQLSIRCWYDKDGRLLQEFNKIEPPLIFECNQACSCWRNCKNRVVQSGIKVRLQLYRTAKMGWGVRALQTIPQGTFICEYVGELISDAEADVREDDSYLFDLDNKDGEVYCIDARYYGNISRFINHLCDPNIIPVRVFMLHQDLRFPRIAFFSSRDIRTGEELGFDYGDRFWDIKSKYFTCQCGSEKCKHSAEAIALEQSRLARLD
notes: EHMT2 = 913 to 1193; made in house; host or cells: Rosetta E. coli (plasmid from the laboratory of Peter W. Lewis)
How did the Km [1, 5] turn out when B1 was run?
Its Km is 16.80 ± 2.69 µM.

What about the kcat [1, 5] of the same protein?
Its kcat is 0.0358 ± 0.00383 s⁻¹.

What about the kcat/Km [1, 5] of the same protein?
The kcat/Km was 2170 ± 167 M⁻¹ s⁻¹.

And the Km [1, 6]?
The Km was 6.10 ± 1.0 µM.

What about the kcat [1, 6] of the same protein?
The kcat was 0.0175 ± 0.00117 s⁻¹.

What about the kcat/Km [1, 6] of the same protein?
The kcat/Km was 2830 ± 500 M⁻¹ s⁻¹.

What about the Km [1, 7] of the same protein?
The Km was 19.21 ± 2.00 µM.

And the kcat [1, 7]?
Its kcat is 0.127 ± 0.00183 s⁻¹.

And the kcat/Km [1, 7]?
Its kcat/Km is 6670 ± 667 M⁻¹ s⁻¹.

B2: EHMT1 catalytic domain (Homo sapiens) (protein)
chain: NSQVWSALQMSKALQDSAPDRPSPVERIVSRDIARGYERIPIPCVNAVDSEPCPSNYKYVSQNCVTSPMNIDRNITHLQYCVCIDDCSSSNCMCGQLSMRCWYDKDGRLLPEFNMAEPPLIFECNHACSCWRNCRNRVVQNGLRARLQLYRTRDMGWGVRSLQDIPPGTFVCEYVGELISDSEADVREEDSYLFDLDNKDGEVYCIDARFYGNVSRFINHHCEPNLVPVRVFMAHQDLRFPRIAFFSTRLIEAGEQLGFDYGERFWDIKGKLFSCRCGSPKCRHS
notes: EHMT1 = 982 to 1266; host or cells: Rosetta E. coli
How did the Km [2, 5] turn out when B2 was run?
Its Km is 6.84 ± 1.81 µM.

And the kcat [2, 5]?
The kcat was 0.0335 ± 0.0025 s⁻¹.

What about the kcat/Km [2, 5] of the same protein?
Its kcat/Km is 5000 ± 833 M⁻¹ s⁻¹.

And the Km [2, 6]?
The Km was 2.21 ± 0.65 µM.

And the kcat [2, 6]?
The kcat was 0.0112 ± 0.000333 s⁻¹.

And the kcat/Km [2, 6]?
Its kcat/Km is 5330 ± 1330 M⁻¹ s⁻¹.

What about the Km [2, 7] of the same protein?
Its Km is 13.51 ± 4.95 µM.

What about the kcat [2, 7] of the same protein?
Its kcat is 0.211 ± 0.0108 s⁻¹.

What about the kcat/Km [2, 7] of the same protein?
Its kcat/Km is 16800 ± 4500 M⁻¹ s⁻¹.

B3: SUV39H2 catalytic domain (Homo sapiens) (protein)
chain: LEGPPSDFYYINEYKPAPGISLVNEATFGCSCTDCFFQKCCPAEAGVLLAYNKNQQIKIPPGTPIYECNSRCQCGPDCPNRIVQKGTQYSLCIFRTSNGRGWGVKTLVKIKRMSFVMEYVGEVITSEEAERRGQFYDNKGITYLFDLDYESDEFTVDAARYGNVSHFVNHSCDPNLQVFNVFIDNLDTRLPRIALFSTRTINAGEELTFDYQMKGSGDISSDSIDHSPAKKRVRTVCKCGAVTCRGYLN
notes: host or cells: Rosetta E. coli
With B3 as the protein, how does the Km [3, 5] read?
The Km was 9.85 ± 1.21 µM.

And the kcat [3, 5]?
The kcat was 0.059 ± 0.00383 s⁻¹.

What about the kcat/Km [3, 5] of the same protein?
The kcat/Km was 6000 ± 500 M⁻¹ s⁻¹.

What about the Km [3, 6] of the same protein?
Its Km is 8.18 ± 3.14 µM.

What about the kcat [3, 6] of the same protein?
Its kcat is 0.0703 ± 0.00583 s⁻¹.

And the kcat/Km [3, 6]?
Its kcat/Km is 9170 ± 2500 M⁻¹ s⁻¹.

And the Km [3, 7]?
Its Km is 4.70 ± 0.69 µM.

What about the kcat [3, 7] of the same protein?
Its kcat is 0.0668 ± 0.00567 s⁻¹.

What about the kcat/Km [3, 7] of the same protein?
Its kcat/Km is 14300 ± 1330 M⁻¹ s⁻¹.

B4: SUV39H1 (Homo sapiens) (protein)
chain: MAENLKGCSVCCKSSWNQLQDLCRLAKLSCPALGISKRNLYDFEVEYLCDYKKIREQEYYLVKWRGYPDSESTWEPRQNLKCVRILKQFHKDLERELLRRHHRSKTPRHLDPSLANYLVQKAKQRRALRRWEQELNAKRSHLGRITVENEVDLDGPPRAFVYINEYRVGEGITLNQVAVGCECQDCLWAPTGGCCPGASLHKFAYNDQGQVRLRAGLPIYECNSRCRCGYDCPNRVVQKGIRYDLCIFRTDDGRGWGVRTLEKIRKNSFVMEYVGEIITSEEAERRGQIYDRQGATYLFDLDYVEDVYTVDAAYYGNISHFVNHSCDPNLQVYNVFIDNLDERLPRIAFFATRTIRAGEELTFDYNMQVDPVDMESTRMDSNFGLAGLPGSPKKRVRIECKCGTESCRKYLF
notes: made in house; host or cells: Rosetta E. coli (plasmid generated for this study)
Which results are given for B4?
Km [4, 5]: 11.78 ± 3.85 µM; kcat [4, 5]: 0.005 ± 0.000833 s⁻¹; kcat/Km [4, 5]: 500 ± 167 M⁻¹ s⁻¹; Km [4, 6]: 3.60 ± 1.72 µM; kcat [4, 6]: 0.0005 ± 0.000167 s⁻¹; kcat/Km [4, 6]: 167 ± 50 M⁻¹ s⁻¹; Km [4, 7]: 4.52 ± 0.49 µM; kcat [4, 7]: 0.00717 ± 0.000667 s⁻¹; kcat/Km [4, 7]: 1670 ± 333 M⁻¹ s⁻¹
